What was measured:
[1] = Safety and tolerability of IL-2 and OKT3 stimulation therapy with hydroxyurea and ddI intensification in patients on HAART; assay type: in vivo, human
Protocol: Treatments with OKT3 and IL-2 are initiated with a physician present during a four to five day admission to the Bone Marrow Transplant Unit. The first dose of IL-2 is given 24 hours after infusion of OKT3, and continued for a total of fourteen days. After 72 hours, if the patient has no or mild adverse side-effects, then the patient can be discharged and followed in the Infectious Disease Clinic as an out-patient, continuing IL-2 administration at home. […] Of note, further treatments with OKT3 may not be possible due to the potential production of human anti-murine antibodies ([…]., et al., Transplant Rev. 5: 181-199, 1991). […] The NIAID standardized toxicity grading system will be utilized (Table 3). Toxicity is graded on a 1 to 4 scale. When toxicity is encountered the dose administered to subjects is modified. […] Level 2 dose reduction will include discontinuation from the study. For hydroxyurea, Level 1 dose reduction will be to 800 mg qday (400 mg po BID).

[2] = OKT3 over 5 to 15 minutes on first day, followed by IL-2; cited from earlier work
T-lymphocytes = settings: solid organ transplant subjects; cited from earlier work
[3] = in vivo; cited from earlier work
CD4+ T-lymphocytes = settings: cited from earlier work

OKT3: purified murine monoclonal antibody (IgG2a) directed to the CD3 antigen of human T-lymphocytic cells
serious adverse side-effects ([1]; human, in vivo): did not have serious adverse side-effects
maximum tolerated dose (MTD) [2]: 400 μg/m^2
time to return of T-cell function to baseline levels after termination (T-lymphocytes): one
chest pain, patients [3]: 14%
dyspnea, patients [3]: 21%
headache, patients [3]: 11%
hypertension, patients [3]: 8%
nausea, patients [3]: 19%
rigor, patients [3]: 8%
tachycardia, patients [3]: 10%
tremor, patients [3]: 13%
vomiting, patients [3]: 19%
wheezing, patients [3]: 13%

O=c1[nH]cnc2c1ncn2[C@H]1CC[C@@H](CO)O1 [ddI, didanosine, reference compound]
serious adverse side-effects ([1]; patient #28, entire trial): did not have serious adverse side-effects

IL-2: cytokine, 15,300 daltons, produced via recombinant DNA technology using genetically-engineered E. coli (Proleukin; Chiron)
serious adverse side-effects ([1]; human, in vivo): did not have serious adverse side-effects
increase in CD4+ T-lymphocytes (CD4+ T-lymphocytes; intravenous 18×10^6 IU per day, five-day treatments every two months, 6 cycles, baseline CD4+ greater than 200 cells/mm^3): approximately 400 cells per mm3
CD4+ T-lymphocyte count, mean value after treatment (CD4+ T-lymphocytes; subcutaneous, 5 day courses every 8 weeks for 6 cycles, starting 7.5×10^6 IU bid, mean 355 at entry): 739

NC(=O)NO [hydroxyurea, reference compound]
serious adverse side-effects ([1]; patient #28, entire trial): did not have serious adverse side-effects
